In patent publication US20240025971A1:

Experiments:
Assay in all cases: cell-based or functional assay
[1] = target: SARS-CoV-2 Delta (B.1.617.2) full-length Spike protein (SARS-CoV-2) (UniProt P0DTC2)
[2] = target: SARS-CoV-2 Gamma (P.1.B.1.1.28) full-length Spike protein (SARS-CoV-2) (UniProt P0DTC2)
[3] = target: SARS-CoV-2 Delta-plus (B.1.617.2.1) full-length Spike protein (SARS-CoV-2) (UniProt P0DTC2)
[4] = target: SARS-CoV-2 Beta (B.1.351) full-length Spike protein (SARS-CoV-2) (UniProt P0DTC2)
[5] = target: SARS-CoV-2 Epsilon (B.1.427/9) full-length Spike protein (SARS-CoV-2) (UniProt P0DTC2)
[6] = target: SARS-CoV-2 Alpha (B.1.1.7) full-length Spike protein (SARS-CoV-2) (UniProt P0DTC2)

Measured: Pseudovirus Neutralization

Anti-Nucleocapsid (Neg Control) (antibody)
> 50 µg/mL: all assays above
